From PMC3713477

Tested on: 3E10 lupus anti-DNA autoantibody (mouse)
Test: EMSA
Details: 0-10 uM 3E10, 30 min at 4 C, buffer, salt and pH not given (ref 28)

Substance	Kd
single-stranded DNA	200 nM
duplex DNA with 5' single-stranded tail	200 nM
duplex DNA with 3' single-stranded tail	200 nM
blunt-end duplex DNA	400 nM
duplex DNA with splayed single-stranded ends	200 nM
duplex DNA with internal bubble (heterology)	400 nM
